PMC4045322 (Biochemistry, 2014)

Assays:
[1] = target: T1, Rsp3690 (Cereibacter sphaeroides, UniProt Q3IVY4); test: 4-nitrophenol release at […] nm; conditions: pH 8.3, 30 °C, 400 μM MnCl2, Mn enzyme
T1 sequence (Q3IVY4 1-354): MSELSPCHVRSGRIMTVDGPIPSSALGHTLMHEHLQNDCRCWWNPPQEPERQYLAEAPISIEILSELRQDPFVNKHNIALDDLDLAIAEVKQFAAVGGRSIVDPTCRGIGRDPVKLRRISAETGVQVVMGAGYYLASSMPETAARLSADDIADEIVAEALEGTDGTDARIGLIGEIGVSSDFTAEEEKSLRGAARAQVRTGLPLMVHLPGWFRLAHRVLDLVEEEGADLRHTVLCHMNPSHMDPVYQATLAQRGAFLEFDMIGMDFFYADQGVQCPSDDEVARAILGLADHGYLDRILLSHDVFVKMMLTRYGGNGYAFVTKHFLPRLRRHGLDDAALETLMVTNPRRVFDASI

[2] = substrate: CCCC(=O)Oc1cccc2ccccc12; test: purified protein; format: biochemical, Cereibacter sphaeroides; conditions: pH 8.3, 30 °C, 400 μM MnCl2, Mn enzyme
[3] = substrate: CC(=O)Oc1c[nH]c2ccccc12; test: purified protein; format: biochemical, Cereibacter sphaeroides; conditions: 50 mM Hepes pH 8.3, 1% ethanol, 30 °C, 400 μM MnCl2, Mn enzyme
[4] = substrate: CC(=O)Oc1ccc2ccccc2c1; test: purified protein; format: biochemical, Cereibacter sphaeroides; conditions: pH 8.3, 30 °C, 400 μM MnCl2, Mn enzyme
[5] = substrate: CCC(=O)Oc1ccc2ccccc2c1; test: purified protein; format: biochemical, Cereibacter sphaeroides; conditions: pH 8.3, 30 °C, 400 μM MnCl2, Mn enzyme
[6] = substrate: CC(=O)Oc1ccc2c(C)cc(=O)oc2c1; test: purified protein; format: biochemical, Cereibacter sphaeroides; conditions: pH 8.3, 30 °C, 400 μM MnCl2, Mn enzyme
[7] = substrate: CC(=O)Nc1ccc(Cl)cc1; test: purified protein; format: biochemical, Cereibacter sphaeroides; conditions: pH 8.3, 30 °C, 400 μM MnCl2, Mn enzyme
[8] = substrate: CC(=O)OCc1ccccc1; test: purified protein; format: biochemical, Cereibacter sphaeroides; conditions: pH 8.3, 30 °C, 400 μM MnCl2, Mn enzyme
[9] = substrate: CCCC(=O)Oc1ccc2c(C)cc(=O)oc2c1; test: purified protein; format: biochemical, Cereibacter sphaeroides; conditions: pH 8.3, 30 °C, 400 μM MnCl2, Mn enzyme
[10] = substrate: CC(=O)Oc1ccc(OC(C)=O)cc1; test: purified protein; format: biochemical, Cereibacter sphaeroides; conditions: pH 8.3, 30 °C, 400 μM MnCl2, Mn enzyme
[11] = substrate: CCCCCCC(=O)Oc1ccc2c(C)cc(=O)oc2c1; test: purified protein; format: biochemical, Cereibacter sphaeroides; conditions: pH 8.3, 30 °C, 400 μM MnCl2, Mn enzyme
[12] = substrate: CC(=O)Oc1cccnc1; test: purified protein; format: biochemical, Cereibacter sphaeroides; conditions: pH 8.3, 30 °C, 400 μM MnCl2, Mn enzyme
[13] = substrate: CC(=O)Oc1cccc2ccccc12; test: purified protein; format: biochemical, Cereibacter sphaeroides; conditions: pH 8.3, 30 °C, 400 μM MnCl2, Mn enzyme
[14] = substrate: CC(=O)Oc1ccccc1; test: purified protein; format: biochemical, Cereibacter sphaeroides; conditions: pH 8.3, 30 °C, 400 μM MnCl2, Mn enzyme
[15] = substrate: CCCCCC(=O)Oc1ccc([N+](=O)[O-])cc1; test: purified protein; conditions: pH 8.3, 30 °C, 400 μM MnCl2, Mn enzyme
[16] = substrate: CC(=O)Oc1ccc([N+](=O)[O-])cc1; test: purified protein; conditions: pH 8.3, 30 °C, 400 μM MnCl2, Mn enzyme
[17] = substrate: CCCC(=O)Oc1ccc([N+](=O)[O-])cc1; test: purified protein; conditions: pH 8.3, 30 °C, 400 μM MnCl2, Mn enzyme
[18] = substrate: CC(=O)Nc1ccc([N+](=O)[O-])cc1; test: purified protein; conditions: pH 8.3, 30 °C, 400 μM MnCl2, Mn enzyme
[19] = substrate: CCCCCCCC(=O)Oc1ccc([N+](=O)[O-])cc1; test: purified protein; conditions: pH 8.3, 30 °C, 400 μM MnCl2, Mn enzyme

## COP(=O)(OC)Oc1ccc([N+](=O)[O-])cc1 [compound 26, methyl paraoxon]
[1]
  Km: 420 ± 40 µM

## CCOP(=O)(OCC)Oc1ccc([N+](=O)[O-])cc1 [compound 27, paraoxon]
[1]
  Km: 110 ± 10 µM

B1: Rsp3690 (Cereibacter sphaeroides 2.4.1) (protein)
chain: T1 sequence (Q3IVY4 1-354)
[2]
  Km: 180 ± 20 µM
  kcat: 9 ± 1 s⁻¹
  kcat/Km: 50000 ± 6000 M⁻¹ s⁻¹
[3]
  Km: 1900 ± 200 µM
  kcat: 2.3 ± 0.1 s⁻¹
  kcat/Km: 1200 ± 100 M⁻¹ s⁻¹
[4]
  Km: 400 ± 40 µM
  kcat: 40 ± 2 s⁻¹
  kcat/Km: 100000 ± 10000 M⁻¹ s⁻¹
[5]
  Km: 560 ± 30 µM
  kcat: 83 ± 2 s⁻¹
  kcat/Km: 150000 ± 10000 M⁻¹ s⁻¹
[6]
  Km: 240 ± 20 µM
  kcat: 0.65 ± 0.02 s⁻¹
  kcat/Km: 2700 ± 200 M⁻¹ s⁻¹
[7]
  Km: 1600 ± 100 µM
  kcat: 0.1 ± 0.01 s⁻¹
  kcat/Km: 63 ± 7 M⁻¹ s⁻¹
[8]
  Km: 1600 ± 100 µM
  kcat: 2.5 ± 0.1 s⁻¹
  kcat/Km: 1600 ± 100 M⁻¹ s⁻¹
[9]
  Km: 160 ± 20 µM
  kcat: 4.9 ± 0.2 s⁻¹
  kcat/Km: 31000 ± 4000 M⁻¹ s⁻¹
[10]
  Km: 900 ± 100 µM
  kcat: 108 ± 4 s⁻¹
  kcat/Km: 130000 ± 10000 M⁻¹ s⁻¹
[11]
  Km: 24 ± 3 µM
  kcat: 0.063 ± 0.001 s⁻¹
  kcat/Km: 2600 ± 300 M⁻¹ s⁻¹
[12]
  Km: 1800 ± 200 µM
  kcat: 4.3 ± 0.3 s⁻¹
  kcat/Km: 2400 ± 300 M⁻¹ s⁻¹
[13]
  Km: 640 ± 70 µM
  kcat: 4.8 ± 0.1 s⁻¹
  kcat/Km: 7500 ± 100 M⁻¹ s⁻¹
[14]
  Km: 2800 ± 200 µM
  kcat: 30 ± 1 s⁻¹
  kcat/Km: 11000 ± 1000 M⁻¹ s⁻¹
[15]
  Km: 48 ± 5 µM
  kcat: 6.5 ± 0.2 s⁻¹
  kcat/Km: 130000 ± 10000 M⁻¹ s⁻¹
[16]
  Km: 520 ± 40 µM
  kcat: 120 ± 3 s⁻¹
  kcat/Km: 230000 ± 20000 M⁻¹ s⁻¹
[17]
  Km: 56 ± 3 µM
  kcat: 50 ± 1 s⁻¹
  kcat/Km: 880000 ± 40000 M⁻¹ s⁻¹
[18]
  Km: 650 ± 60 µM
  kcat: 0.36 ± 0.02 s⁻¹
  kcat/Km: 550 ± 60 M⁻¹ s⁻¹
[19]
  Km: 33 ± 4 µM
  kcat: 0.5 ± 0.01 s⁻¹
  kcat/Km: 15000 ± 2000 M⁻¹ s⁻¹
